# What was measured:
# Gal-3 CRD (trGal-3) = Gal-3 CRD (trGal-3) (Homo sapiens, UniProt P17931); assay: hydrogen-deuterium exchange mass spectrometry; format: binding; settings: absence vs presence of lactose; canonical site
# [1] = biological target: Gal-3–8S–Gal-1 (covalently connected heterodimer, Gal-3 CRD, 33-aa Gal-8 linker, Gal-1 CRD) (human); assay: SEC
# [2] = biological target: Gal-3–8S–Gal-1 (covalently connected heterodimer, Gal-3 CRD, 33-aa Gal-8 linker, Gal-1 CRD) (human); assay: SAXS
# Chain of Gal-3 CRD (trGal-3) (P17931 108-250 limits assumed): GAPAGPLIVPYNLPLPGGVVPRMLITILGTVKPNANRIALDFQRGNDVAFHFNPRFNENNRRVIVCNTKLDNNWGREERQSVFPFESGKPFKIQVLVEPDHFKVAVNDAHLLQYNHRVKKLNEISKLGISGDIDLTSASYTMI
stoichiometry N [1],stoichiometry N [2],Compound,hydrogen-deuterium exchange mass spectrometry (Gal-3 CRD (trGal-3))
–,–,OC[C@H]1O[C@@H](O[C@H]2[C@H](O)[C@@H](O)C(O)O[C@@H]2CO)[C@H](O)[C@@H](O)[C@H]1O (stereo partly drawn) [Lac],significantly decreased deuterium uptake was found in the region of the canonical binding site
2,2,"Gal-3–8S–Gal-1 (covalently connected heterodimer, Gal-3 CRD, 33-aa Gal-8 linker, Gal-1 CRD)",–
